This assay has as its target T1, HLA-A*02:01 (human).
T1 construct: MHC monomers captured on streptavidin plates; the UV-sensitive peptide is cleaved and exchanged with the test peptide; also called peptide-receptive MHC molecules; MHC class I
In words: UV ligand-exchange ELISA (anti-b2m); +++ = exchange yield >=50. The source says: Candidate peptides for T cell based therapies according to the present invention were further tested for their MHC binding capacity (affinity). The individual peptide-MHC complexes were produced by UV-ligand exchange, where a UV-sensitive peptide is cleaved upon UV-irradiation, and exchanged with the peptide of interest as analyzed. Only peptide candidates that can effectively bind and stabilize the peptide-receptive MHC molecules prevent dissociation of the MHC complexes. To determine the yield of the exchange reaction, an ELISA was performed based on the detection of the light chain (β2m) of stabilized MHC complexes. The assay was performed as generally described in Rodenko et al. (Rodenko et al., 2006).
96 well MAXISorp plates (NUNC) were coated over night with 2 ug/ml streptavidin in PBS at room temperature, washed 4× and blocked for 1 h at 37° C. in 2% BSA containing blocking buffer. Refolded HLA-A*02:01/MLA-001 monomers served as standards, covering the range of 15-500 ng/ml. Peptide-MHC monomers of the UV-exchange reaction were diluted 100 fold in blocking buffer. Samples were incubated for 1 h at 37° C., washed four times, incubated with 2 ug/ml HRP conjugated anti-β2m for 1 h at 37° C., washed again and detected with TMB solution that is stopped with […]. Absorption was measured at 450 nm. Candidate peptides that show a high exchange yield (preferably higher than 50%, most preferred higher than 75%) are generally preferred for a generation and production of antibodies or fragments thereof, and/or T cell receptors or fragments thereof, as they show sufficient avidity to the MHC molecules and prevent dissociation of the MHC complexes.

GLAALAVHL: the peptide exchange yield was 50 to 75%.

ALLEQTGDMSL displayed a peptide exchange yield of 50 to 75%.

LLFDWSGTGRADA returned a peptide exchange yield of 50 to 75%.

Molecule SLAGNLQEL yielded a peptide exchange yield of 50 to 75%.

Take ALNESLVEC: the peptide exchange yield was in the range of 50 to 75%.

On to KQFEGTVEI, for which the peptide exchange yield is 50 to 75%.

FLNDIFERI came in with a peptide exchange yield of 50 to 75%.

For the molecule YLEDGFAYV, the peptide exchange yield lay in the range of 50 to 75%.

The molecule SLFESLEYL (also called ZFP42-001) had a peptide exchange yield of 50 to 75%.

VLFGELPAL displayed a peptide exchange yield of 50 to 75%.

Consider FLMKNSDLYGA, for which the peptide exchange yield lay in the range of 50 to 75%.

For LLWGNLPEI, the peptide exchange yield lay within 50 to 75%.

Molecule LLLEAVWHL came in with a peptide exchange yield of 50 to 75%.

On to TVLQELINV, for which the peptide exchange yield lay in the range of 50 to 75%.

In turn, NVAEIVIHI came in with a peptide exchange yield of 50 to 75%.

For the molecule KLQEELNKV, the peptide exchange yield was 50 to 75%.

FLLDKPQDLSI had a peptide exchange yield of 50 to 75%.

Take TLLTFFHEL: the peptide exchange yield was 50 to 75%.

Molecule KLLNMIFSI registered a peptide exchange yield of 50 to 75%.

Regarding KMSELQTYV, the peptide exchange yield fell in the range of 50 to 75%.

In turn, YLLDMPLWYL gave a peptide exchange yield of 50 to 75%.

The molecule VLIEYNFSI gave a peptide exchange yield of 50 to 75%.

FLPQPVPLSV yielded a peptide exchange yield of 50 to 75%.

Regarding KVWSDVTPL (also called MMP-002), the peptide exchange yield was 50 to 75%.

In the case of TLYNPERTITV (also called IGF-004), the peptide exchange yield was 50 to 75%.

KIWEELSVLEV (also called MAGEA3-003): the peptide exchange yield lay within 50 to 75%.

Take LLDDIFIRL: the peptide exchange yield fell in the range of 50 to 75%.

The molecule YLVPGLVAA yielded a peptide exchange yield of 50 to 75%.

Molecule GLLETTGLLAT returned a peptide exchange yield of 50 to 75%.

On to KLIDHQGLYL, for which the peptide exchange yield fell in the range of 50 to 75%.

As to KLLAVIHEL (also called RAD54B-002), the peptide exchange yield fell in the range of 50 to 75%.

TLNTLDINL registered a peptide exchange yield of 50 to 75%.

Regarding SLLELDGINLRL, the peptide exchange yield was 50 to 75%.

On to LLWGHPRVALA (also called MXRA5-003), for which the peptide exchange yield was in the range of 50 to 75%.

On to YLYQILQGI, for which the peptide exchange yield fell in the range of 50 to 75%.

For the molecule VIIKGLEEITV, the peptide exchange yield lay within 50 to 75%.

The molecule KISDFGLATV had a peptide exchange yield of 50 to 75%.

With MLLDTVQKV, the peptide exchange yield lay in the range of 50 to 75%.

As to VLEDKVLSV, the peptide exchange yield lay within 50 to 75%.

VLMQDSRLYL registered a peptide exchange yield of 50 to 75%.

For ALAGIVTNV, the peptide exchange yield lay within 50 to 75%.

As to IITEVITRL, the peptide exchange yield is 50 to 75%.

Turning to AVFNLVHVV, the peptide exchange yield was in the range of 50 to 75%.

In turn, FLTEMVHFI displayed a peptide exchange yield of 50 to 75%.

Turning to HLLGEGAFAQV, the peptide exchange yield lay in the range of 50 to 75%.

The molecule GLLGKVTSV showed a peptide exchange yield of 50 to 75%.

Turning to FLPVSVVYV, the peptide exchange yield fell in the range of 50 to 75%.

In turn, HLFDKIIKI returned a peptide exchange yield of 50 to 75%.

For ALSELLQQV, the peptide exchange yield lay in the range of 50 to 75%.

In the case of LMQDSRLYL, the peptide exchange yield was in the range of 50 to 75%.

Molecule IVTEIISEI returned a peptide exchange yield of 50 to 75%.

The molecule GLVDIMVHL registered a peptide exchange yield of 50 to 75%.

On to GLNGFNVLL, for which the peptide exchange yield was in the range of 50 to 75%.

The molecule ALLSPLSLA gave a peptide exchange yield of 50 to 75%.

With ILLSVLHQL, the peptide exchange yield is 50 to 75%.

Take VLDGKVAVV: the peptide exchange yield is 50 to 75%.

RMPTVLQCV: the peptide exchange yield lay within 50 to 75%.

With RVIDDSLVVGV, the peptide exchange yield was in the range of 50 to 75%.

For the molecule HLWGHALFL, the peptide exchange yield was 50 to 75%.

Molecule KLQEEIPVL gave a peptide exchange yield of 50 to 75%.

SIIEYLPTL displayed a peptide exchange yield of 50 to 75%.
